For assay [1], the target named is T1, DLL3 extracellular domain (amino acids 27-466) displayed on yeast (human, UniProt Q9NYJ7 27-466).
T1 construct: also called DLL3 ECD; wild type DLL3 ECD
T1 sequence: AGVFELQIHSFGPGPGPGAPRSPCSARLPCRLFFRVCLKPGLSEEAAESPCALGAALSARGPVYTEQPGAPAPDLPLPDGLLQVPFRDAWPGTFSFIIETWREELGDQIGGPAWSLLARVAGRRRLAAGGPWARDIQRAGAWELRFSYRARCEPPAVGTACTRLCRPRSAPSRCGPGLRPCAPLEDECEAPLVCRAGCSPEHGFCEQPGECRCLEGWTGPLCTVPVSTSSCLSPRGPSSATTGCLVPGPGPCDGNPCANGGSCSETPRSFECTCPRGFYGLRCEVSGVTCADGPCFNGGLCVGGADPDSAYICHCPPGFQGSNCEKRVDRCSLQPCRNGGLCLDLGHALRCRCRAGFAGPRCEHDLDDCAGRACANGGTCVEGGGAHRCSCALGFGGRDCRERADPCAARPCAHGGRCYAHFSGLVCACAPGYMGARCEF
Briefly: fine epitope mapping (phage display peptide library or yeast display of DLL3 ECD mutants).

In assay [2] the target is T2, human DLL3-His protein (human, UniProt Q9NYJ7 27-492).
T2 construct: Purified from supernatants of CHO-S cells; also called hDLL3-His; recombinant DLL3-His; not shown: His tag
T2 sequence: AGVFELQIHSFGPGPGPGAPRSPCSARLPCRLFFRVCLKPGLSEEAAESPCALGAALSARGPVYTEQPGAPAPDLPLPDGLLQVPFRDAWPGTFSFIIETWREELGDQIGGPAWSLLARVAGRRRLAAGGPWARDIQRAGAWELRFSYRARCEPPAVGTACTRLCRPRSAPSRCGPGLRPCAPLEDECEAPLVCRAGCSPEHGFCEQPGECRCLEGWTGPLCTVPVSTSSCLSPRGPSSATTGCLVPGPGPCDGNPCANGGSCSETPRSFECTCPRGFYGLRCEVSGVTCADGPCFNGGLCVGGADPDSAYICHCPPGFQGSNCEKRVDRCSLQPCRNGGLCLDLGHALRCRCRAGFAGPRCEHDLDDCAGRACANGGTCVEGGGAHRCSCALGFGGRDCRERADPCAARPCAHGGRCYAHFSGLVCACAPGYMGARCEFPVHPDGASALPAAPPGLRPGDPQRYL
In words: IHC competition: antibody mixed with a 5x molar ratio excess of hDLL3-His before staining FFPE sections. The method, then: (§1) In order to identify an IHC-compatible anti-DLL3 antibody, IHC was performed on HEK293T parental cell pellets or DLL3-expressing HEK293T cell pellets using numerous anti-DLL3 antibodies of the invention. Several murine anti-DLL3 antibodies (including SC16.65) were able to specifically detect DLL3-overexpressing HEK293T cell pellets more effectively than other anti-DLL3 antibodies of the invention that were tested (data not shown). The ability of these antibodies to specifically detect DLL3 was confirmed by a competition experiment in which the relevant anti-DLL3 antibody was mixed with a 5× molar ratio excess of hDLL3-His protein and then incubated with DLL3-expressing HEK293T formalin fixed and paraffin embedded (FFPE) sections.

The target of assay [3] is T3, DLL3 on DLL3-expressing HEK293T cells (human, UniProt Q9NYJ7 27-618).
T3 construct: Cells were formalin fixed and paraffin embedded for IHC; also called DLL3-overexpressing HEK293T cell pellets; DLL3-expressing HEK293T FFPE sections
T3 sequence: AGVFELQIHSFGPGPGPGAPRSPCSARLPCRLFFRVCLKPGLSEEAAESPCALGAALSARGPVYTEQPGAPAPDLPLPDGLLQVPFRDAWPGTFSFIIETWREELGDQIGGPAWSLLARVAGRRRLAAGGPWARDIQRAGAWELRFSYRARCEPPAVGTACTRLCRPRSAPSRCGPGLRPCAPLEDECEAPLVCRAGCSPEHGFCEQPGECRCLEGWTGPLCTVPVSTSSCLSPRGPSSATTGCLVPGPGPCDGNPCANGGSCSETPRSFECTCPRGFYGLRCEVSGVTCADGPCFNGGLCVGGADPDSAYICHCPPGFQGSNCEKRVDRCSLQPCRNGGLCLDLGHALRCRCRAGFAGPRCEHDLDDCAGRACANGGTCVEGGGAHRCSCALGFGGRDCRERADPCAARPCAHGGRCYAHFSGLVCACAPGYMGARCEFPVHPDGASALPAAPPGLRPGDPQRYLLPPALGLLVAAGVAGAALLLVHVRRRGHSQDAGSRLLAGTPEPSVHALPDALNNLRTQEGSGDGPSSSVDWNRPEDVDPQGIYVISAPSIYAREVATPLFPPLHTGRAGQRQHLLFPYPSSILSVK
In words: immunohistochemistry on HEK293T parental vs DLL3-expressing cell pellets. As for the experimental part:
as §1

Numbering of substitutions follows the chain as printed.

B1: SC16.23 (antibody, V domains shown)
VH: QVTLKESGPGILQPSQTLSLTCSFSGFSLSTSNTGIGWIRQPSGTGLEWLAHIWWNDDKYYNPSLKSRLTISKETSNNQVFLKITNVDTADTASYFCVQIGRDYSNYAWYFDVWGAGTTVTVSS
VL: QIVLTQSPAIMSASPGEKVTLTCSASSSVSSRYLYWYQQKPGSSPKLWIYSTSNLASGVPARFSGSGSGTSYSLIISSMEAEDAASYFCHQWSNYPLTFGAGTKLELK
notes: murine hybridoma mAb
As for B1, the binding result in assay [1] is listed as “binds”.

B2: SC16.65 (antibody, V domains shown)
VH: QVTLKESGPGILQPSQTLSLTCSFSGFSLSTSGMGVGWIRQPSGKGLEWLALIWWDDVKRYNPALKSRLTISKDASSSQVFLKIASVDTADTATYYCARIASYDYDVVYAMDYWGQGTSVSVSS
VL: QIVLTQSPALMSASPGEKVTMTCSVTSSVSYMYWYQQKPRSSPKPWIYLTSNLASGVPARFSGSGSGTSYSLTISSVEAEDAATYYCQQWRNNPFTFGSGTKVEIK
notes: murine hybridoma mAb
Consider B2, for which the binding result in assay [2] and in assay [3] was “binds” each time.

B3: SC16.34 (antibody, V domains shown)
VH: QIQLVQSGPELKRPGETVKISCKASGYTFTNYGMNWVKQAPGKGLKWMGWINTYTGDPTYADDFKGRFAFSLETSASTAYLQINNLKNEDTATYFCARIGGNSPSDYWGQGTSLTVSS
VL: SIVMTQTPKFLLVSAGDRVTITCKASQSVSNDVAWYQQKPGQSPKLLIYYASNRYSGVPDRFTGSGYGTDFTFTISTVQAEDLAVYFCQQDYSSPWTFGGGTKLEIK
notes: murine hybridoma mAb
With B3, the binding result in assay [1] was “binds”.

B4: SC16.56 (antibody, V domains shown)
VH: B3 VH with R13K, G49A, D57E, Y80S, N84I, G101D, N102S, S113T
VL: B3 VL with A34V, S56T, T63A, T72S, S93T, K107R
notes: murine hybridoma mAb
As for B4, the binding result in assay [1] is “binds”.

The record behind these values is US20180243435A1 (AbbVie / Abbott, published 2018).
